From patent US11767353B2, “Trail compositions with reduced immunogenicity” (Theraly Fibrosis, Inc., priority 2020, dated 2023)

Experiments:
[1] = system: Human Colon Carcinoma Fibroblasts HC-6231; experiment: Caspase 3/7 activity in colon cancer associated fibroblasts; format: cell-based; conditions: TLY012 0-1000 ng/ml for 3h, FIG. 12A
From the text: Human Colon Carcinoma Fibroblasts HC-6231 were obtained from Cell Biologics (Catalog Number HC-6231) and maintained in fibroblast media (Cell Biologics, Catalog Number M2267).

[2] = system: activated primary human hepatic stellate cells (HSCs); experiment: Cell cytotoxicity assay on activated hepatic stellate cells (myofibroblasts); format: cell-based; conditions: FIG. 3
Method: (§1) In addition to the standard physico-chemical characterization, the leads were tested for the target potency and off-target toxicity. Initially, selective apoptotic activities of various TLY012 leads were tested in normal (off-target) and myofibroblasts (target cells) by utilizing quiescent and activated primary human hepatic stellate cells (HSCs) respectively. Briefly, quiescent and culture-activated HSCs were incubated with TLY012 leads and cell viability was determined by cell cytotoxicity assays.

[3] = system: quiescent primary human hepatic stellate cells (HSCs); experiment: Cell cytotoxicity assay on quiescent hepatic stellate cells (off-target); format: cell-based; conditions: high concentrations (100 nM)
Method: as §1

[4] = system: Pancreatic cancer associated fibroblasts (CAF08)
Method: Pancreatic cancer associated fibroblasts (CAF08) and maintenance media (PC00B5) were obtained from Vitro Biopharma. 100 of PSCs were culture-activated for 7 to have the confluent population of activated cells or 2×10^4 cells of CAF08 were cultured on a 96 well microplate (Corning, CLS3917) for 24h and were incubated with TLY012 (at 30 ng/ml or 100 ng/ml) for 3h. After incubation, 50 μL of Caspase 3/7 substrate/lysis buffer was added to each well and incubated for 30 min after 30 min of equilibration period to room temperature. The luminescence of each sample was measured on a plate reader (Bio-Tek Instruments Inc) with parameters of 1 min lag time and 0.5 sec/well-read time (n=3).
For immunoblot, 100 of PSCs were culture activated on a 6 well plate for 7 days or 2×10^5 of CAF08 cells were plated on 6-well plates followed by control treatment or treatment with TLY012 (at 30 ng/ml or 100 ng/ml) for 3h. The lysates from the cells were tested for the presence of Cl.PARP-1 and SMA using Western bot.
Pancreatic cancer associated fibroblasts (CAF08) and maintenance media (PC00B5) were obtained from Vitro Biopharma and maintained in Pancreatic Stellate CAF maintenance media (Vitro Biopharma, Cat. No. PC00B5).
After incubation, 50 uL of Caspase 3/7 substrate/lysis buffer from Caspase3/7 Glo assay kit (Promega, Madison USA) was added to each well and incubated for 30 min after 30 min of equilibration period to room temperature. The luminescence of each sample was measured on a plate reader (Bio-Tek Instruments Inc) with parameters of 1 min lag time and 0.5 sec/well-read time (n=3).
For Western blot, 2×10^5 cells were plated on 6-well plates and were incubated with the same cytotoxic agents as indicated followed by Western blot detection of Cl.PARP-1, PD-L1, DR5, DR4, α-SMA, and β-actin.

[5] = system: orthotopic xenografts of mouse KPC cells (UN-KPC-960); experiment: Orthotopic pancreatic xenografts of mouse KPC cells in B6.129 mice; format: in vivo
Method: To generate the solid tumor, 10^7 of mouse pancreatic ductal adenocarcinoma UN-KPC-960-luc2 cells suspended in 100 μl PBS were inoculated into flank of syngeneic B6.129 mice. The KPC tumors from the donor mice were excised under sterile conditions once the tumor was grown up to […] in diameter. The donor tumors were cut into 1-1.5 mm^3 pieces using surgical blade.
For the orthotopic xenograted tumors in pancreas, a laparotomy via left flank incision was performed to expose the pancreatic head and donor tumor pieces were inserted into the pancreas of recipient B6.129 mice (n=7/group) followed by closing in two layers with 5-0 absorbable sutures. Two weeks after the tumor transplantation, mice were injected with TLY012 via intraperitoneal route (10 mg/kg, every other day) and/or anti-PD-L1 (B7-H1, anti-mouse PD-L1, 2.5 mg/kg, twice of a week) for 2 weeks. Transplanted animals were imaged once a week for 5 weeks. Bioluminescent images using IVIS were acquired 10-15 minutes after intraperitoneal administration of D-Luciferin (150 mg/kg) (GOLDBIO, St. Louis, Mo., USA).
For tumor volume studies, orthotopic xenograted tumors were generated in pancreas. A laparotomy via left flank incision was performed to expose the pancreatic head and 5×10^6 of UN-KPC-960 cells were transplanted into the pancreas of recipient B6.129 mice (n=5/group) followed by closing in two layers with 5-0 absorbable sutures. four weeks after the transplantation, mice were injected with TLY012 via intraperitoneal route (10 mg/kg, every other day) or saline for 2 weeks. Then excised tumors were studied by: a) captured image and tumor volume of ½ab^2, and b) measured collagen and α-SMA positive area after TLY012 treatment using Sirius red and anti-α-SMA staining
Paraffin sectioned KPC tumor samples were used for immunofluorescence staining (IF) stain with α-SMA and either CD4 or CD8. Tissues were deparaffinized, hydrated, and heated in citrate buffer (Thermo Fisher Scientific) by microwave for antigen retrieval. Slides were washed, treated with blocking solution (3% of normal horse serum, Vectastain ABC System, Vector Labs, Burlingame, Calif.), and primary antibodies, rabbit anti-CD4 antibody (Abcam, ab183685) or rabbit anti-CD8 antibody (Abcam, ab217344) were applied with mouse anti-α-SMA antibody. Tissues were incubated overnight at 4° C., washed and anti-rabbit IgG conjugated with Alexa fluor 488 and anti-mouse IgG conjugated with Alexa fluor 633 (Thermo Fisher Scientific) were applied and incubated at room temperature. After washing the slides, samples were mounted with Fluorescence Mounting Medium with DAPI and captured under Axiovert microscope (Carl Zeiss Microscopy, LLC. Thornwood, N.Y.).
The excised tumors were immediately fixed in 10% buffered formalin, embedded in paraffin, and cut at 4 μm thickness. The sections were then stained for Masson's Trichrome or Sirius-Red staining for determining the collagen deposition. Stained tissues were imaged under a light microscope (Nikon Eclipse E600 connected with Nikon DS-Fi2 camera, Nikon USA). Stained pancreatic tissues were randomly selected 10 photos from individual mice, and the positively stained area was quantified using Image J software (NIH, Bethesda, Md.).

[6] = Single-dose pharmacokinetics in Cynomolgus monkeys (ELISA, serum)
From the text: PK parameters were addressed in Cynomolgus monkeys. This was a single dose, parallel group, dose escalation study in 5 males and 5 females normal Cynomolgus monkeys ranging in age from 34 to 44 months. At the start date of the study body weights ranged from 2.9 to 3.9 kg for males and 2.9 to 3.2 kg for females. Blood samples were collected at time point indicated in Table 3 and serum samples prepared for analyzing drug levels.
A sandwich enzyme-linked immunosorbent assay (ELISA) for human TRAIL was developed to measure the concentrations of TLY012 in monkey serum. Briefly, serum samples were diluted in 0.5% normal monkey serum and incubated with anti-TRAIL capturing antibodies immobilized on ELISA plates. Test samples were analyzed at 1:200-1:168000 dilutions (depending on the predicted concentrations) to fit into the range of the standard curve (97 pg/mL-12.5 ng/mL). All data within the assay range were reported and provided for pharmacokinetic analysis
A compartment model independent pharmacokinetic analysis was conducted on dose and serum concentration-time data with Phoenix 64 WinNonlin software. The parameters addressed: maximum serum concentrations (Cmax), time (Tmax) to reach Cmax, time (Tlast) to reach the last quantifiable concentration (Clast), elimination half-life (t½). Area under the curve from zero to Clast (AUClast), the total area under the curve from zero to infinity (AUC). Total systemic clearance (CL) and steady state volume of distribution (Vss) was calculated for IV group. Clearance (CL/F) and volume of distribution (Vz/F) and bioavailability (F) was computed for the SC groups. In addition, dose-exposure relationship was evaluated by linear regression analysis.

TLY012: PEGylated (5 kDa PEG-aldehyde) recombinant human TRAIL (114-281) fused to modified isoleucine zipper (miLZ) at N-terminus; SEQ ID NO:30 trimer
apoptosis by Caspase3/7 activity assay [1]: induced apoptosis | IC50 [2]: 142 pM | effect / off-target toxicity on quiescent HSCs [3]: no effect | effect / off-target toxicity on quiescent HSCs ([3]; listed as TLY012 leads): no off-target toxicity | Cl.PARP-1, immunoblot ([4]; TLY012 30 or 100 ng/ml for 3h): detected | caspase 3/7 activity (RLU) ([4]; TLY012 30 or 100 ng/ml for 3h, vs control treatment): activated caspase 3/7 | protein levels of α-SMA, Western blotting ([4]; pancreatic CAF): significantly decreased | Percent survival ([5]; Day 0): 100% | Bioluminescence activity (Total Counts), Mean ([5]; Day 14): 72300 Total Counts | Bioluminescence activity (Total Counts), Mean ([5]; Day 21): 233157.143 Total Counts | Bioluminescence activity (Total Counts), Mean ([5]; Day 28): 185128.571 Total Counts | Bioluminescence activity (Total Counts), Mean ([5]; Day 35): 390357.143 Total Counts | Percent survival ([5]; Day 35): 100% | tumor volume, Average ([5]; TLY012 i.p. 10 mg/kg every other day and/or anti-PD-L1 2.5 mg/kg twice a week, 2 weeks): 135.0695 mm3 | levels of collagen (fibrosis), immunohistochemistry ([5]; TLY012 i.p. 10 mg/kg every other day for 2 weeks): decreased the levels of collagen | tumor volume compared to the saline-treated group ([5]; TLY012 i.p. 10 mg/kg every other day for 2 weeks, FIG. 14): reduced the tumor volume | cytotoxic T cell (CD4, CD8) infiltration to the tumor site ([5]; double immunofluorescence staining, vs saline): enhanced cytotoxic T cell infiltration to the tumor site | AUC ([6]; IV 10 mg/kg, female (ID 401)): 7780 µg·h/mL | AUCext ([6]; IV 10 mg/kg, female (ID 401)): 0.185% | Cmax ([6]; IV 10 mg/kg, female (ID 401)): 319 µg/mL | Tlast ([6]; IV 10 mg/kg, female (ID 401)): 360 h | Tmax ([6]; IV 10 mg/kg, female (ID 401)): 0.250 h | AUC ([6]; IV 10 mg/kg, male (ID 1)): 8590 µg·h/mL | AUCext ([6]; IV 10 mg/kg, male (ID 1)): 0.411% | Cmax ([6]; IV 10 mg/kg, male (ID 1)): 289 µg/mL | Tlast ([6]; IV 10 mg/kg, male (ID 1)): 360 h | Tmax ([6]; IV 10 mg/kg, male (ID 1)): 0.250 h | AUC ([6]; SC 2 mg/kg, female (ID 501)): 836 µg·h/mL | AUCext ([6]; SC 2 mg/kg, female (ID 501)): 1.45% | Cmax ([6]; SC 2 mg/kg, female (ID 501)): 12.1 µg/mL | F (absolute bioavailability) ([6]; SC 2 mg/kg, female (ID 501)): 53.7% | Tlast ([6]; SC 2 mg/kg, female (ID 501)): 264 h | Tmax ([6]; SC 2 mg/kg, female (ID 501)): 12.0 h | AUC ([6]; SC 2 mg/kg, male (ID 101)): 642 µg·h/mL | AUCext ([6]; SC 2 mg/kg, male (ID 101)): 0.779% | Cmax ([6]; SC 2 mg/kg, male (ID 101)): 10.8 µg/mL | F (absolute bioavailability) ([6]; SC 2 mg/kg, male (ID 101)): 37.4% | Tlast ([6]; SC 2 mg/kg, male (ID 101)): 264 h | Tmax ([6]; SC 2 mg/kg, male (ID 101)): 6.00 h | AUC ([6]; SC 10 mg/kg, female (ID 601)): 6190 µg·h/mL | AUCext ([6]; SC 10 mg/kg, female (ID 601)): 0.266% | Cmax ([6]; SC 10 mg/kg, female (ID 601)): 52.7 µg/mL | F (absolute bioavailability) ([6]; SC 10 mg/kg, female (ID 601)): 79.6% | Tlast ([6]; SC 10 mg/kg, female (ID 601)): 264 h | Tmax ([6]; SC 10 mg/kg, female (ID 601)): 48.0 h | AUC ([6]; SC 10 mg/kg, male (ID 201)): 6480 µg·h/mL | AUCext ([6]; SC 10 mg/kg, male (ID 201)): 0.0231% | Cmax ([6]; SC 10 mg/kg, male (ID 201)): 51.7 µg/mL | F (absolute bioavailability) ([6]; SC 10 mg/kg, male (ID 201)): 75.4% | Tlast ([6]; SC 10 mg/kg, male (ID 201)): 360 h | Tmax ([6]; SC 10 mg/kg, male (ID 201)): 24.0 h | AUC ([6]; SC 50 mg/kg, female (ID 701)): 44200 µg·h/mL | AUCext ([6]; SC 50 mg/kg, female (ID 701)): 1.28% | Cmax ([6]; SC 50 mg/kg, female (ID 701)): 296 µg/mL | F (absolute bioavailability) ([6]; SC 50 mg/kg, female (ID 701)): 114% | Tlast ([6]; SC 50 mg/kg, female (ID 701)): 360 h | Tmax ([6]; SC 50 mg/kg, female (ID 701)): 24.0 h | AUC ([6]; SC 50 mg/kg, male (ID 301)): 33400 µg·h/mL | AUCext ([6]; SC 50 mg/kg, male (ID 301)): 3.13% | Cmax ([6]; SC 50 mg/kg, male (ID 301)): 186 µg/mL | Tlast ([6]; SC 50 mg/kg, male (ID 301)): 264 h | Tmax ([6]; SC 50 mg/kg, male (ID 301)): 72.0 h | F (absolute bioavailability) ([6]; SC 50 mg/kg, male (ID 301), 50 mg/kg): 77.88% | F (absolute bioavailability) ([6]; SC 50 mg/kg, male (ID 301), listed as TYL012, 50 mg/kg): 77.8% | dose relationship of maximum serum (Cmax) concentrations ([6]; dose range 2-50 mg/kg): increased dose proportionately
